These results are taken from patent publication US7998940B2, “Aptamers to von Willebrand factor and their use as thrombotic disease therapeutics” (Archemix Corp., priority 2004, dated 2011).

The subject of data set [1] is rabbit vWF domain A1 binding to lyophilized platelets. The experiment in a line: Rabbit von Willebrand Factor domain A1 platelet binding assay (FACS). The class given is cell-based. The essentials:
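Aptamers (0.1–1000 nM) preincubated with 4 nM His-tagged rabbit vWF A1 in PBS/0.5% BSA, then lyophilized human platelets plus botrocetin added, 15 min at 37 °C. Bound A1 detected by anti-His-biotin and PE secondary via flow cytometry (median fluorescence, background-subtracted); IC50 fitted from percent inhibition.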

In data set [2] the test system is full length human vWF binding to lyophilized platelets. The data set can be described thus: Full length human von Willebrand Factor platelet binding assay (FACS). Conditions: for Inhibition of full length hVWF binding in FACS assay, IC50 range: both bounds in nM. It is filed as cell-based. The essentials:
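Aptamer titrations (0.1–1000 nM) pre-incubated with 5 nM full-length human vWF, then added to lyophilized platelets plus botrocetin for 15 min at 37 °C in PBS/0.5% BSA. Bound vWF detected by anti-vWF then FITC secondary antibody via flow cytometry MFI; % inhibition versus no-aptamer binding fitted for IC50.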
On the technique in general: In flow cytometry, cells or beads pass a laser one at a time.

The mark [3] stands for this setting: read-out: FACS IC50 vs rabbit A1 domain.
Setting [4] is: read-out: FACS IC50 vs human full length vWF.
Setting [5] is: 4 nM rabbit A1 vWF, lyophilized platelets, botrocetin, both bounds in nM, read-out: Inhibition of rabbit VWF A1 domain binding in FACS assay, IC50 range.
[6] abbreviates: 5 nM full length human vWF, lyophilized platelets, botrocetin, read-out: Inhibition of full length hVWF binding in FACS assay, Average IC50.
Setting [7] is: 5 nM full length human vWF, lyophilized platelets, botrocetin, units in the cell: lower bound pM, upper bound nM, read-out: Inhibition of full length hVWF binding in FACS assay, IC50 range.
The mark [8] stands for this setting: 4 nM rabbit A1 vWF, lyophilized platelets, botrocetin, both bounds in nM.
Where [9] appears, read: 5 nM full length human vWF, lyophilized platelets, botrocetin.
The mark [10] stands for this setting: 4 nM rabbit A1 vWF, lyophilized platelets, botrocetin, read-out: Inhibition of rabbit VWF A1 domain binding in FACS assay, Average IC50.

Read-outs that look alike come from different tables or passages of the source. Oligonucleotides are written 5' to 3', each unit as a sugar letter and its base; * is a phosphorothioate linkage, no mark a phosphodiester; rarer units and linkages stand in square brackets, end groups in braces. Plain capitals give the bases only. [invdT] = inverted (3'-3') thymidine; d = 2'-deoxy (DNA); m = 2'-O-methyl; r = 2'-OH (RNA); f = 2'-fluoro

rabbit vWF domain A1 binding to lyophilized platelets, sequence (as listed by the source): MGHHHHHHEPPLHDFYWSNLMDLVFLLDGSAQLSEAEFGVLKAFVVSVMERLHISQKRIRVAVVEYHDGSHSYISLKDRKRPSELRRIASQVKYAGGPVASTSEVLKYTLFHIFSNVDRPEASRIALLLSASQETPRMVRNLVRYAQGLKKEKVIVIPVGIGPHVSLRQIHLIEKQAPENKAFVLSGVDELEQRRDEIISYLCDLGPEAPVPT

Broadly, the IC50 is the point on the concentration scale where inhibition reaches its midpoint. On to “dGdGdCdGTdGdCdAdGTdGdCdCTTdCdGdGdCdCdGTdGdCdGdGTdGdCdCTdCdCdGTdCdAdCdGdCdC-3T (DNA GGCGTGCAGTGCCTTCGGCCGTGCGGTGCCTCCGTCACGCC; DNA, [invdT] at 3' end, backbone and methylation of C not given here) [ARC1172, ARC1115 with 3'-inverted dT]”, for which the IC50 is 2 nM in data set [1] (setting [3]) and 2000 pM in data set [2] (setting [4]).

Consider “mGmCmGmUdGdCdAmGmUmGmCmCmUmUmCmGmGmCdCmG-s-TmGdCdGdGTmGmCdCmUdCdCmGmUdCmAmCmGmC-3T (GCGUGCAGUGCCUUCGGCCGTGCGGTGCCUCCGUCACGC; sugars from the 5' end mmmmdddmmmmmmmmmmmdmdmddddmmdmddmmdmmmm, [invdT] at 3' end, backbone not given here) [ARC1368]”, for which the values for the IC50 in data set [1] (setting [3]) and in data set [2] (setting [4]) were 4 nM and 2000 pM, respectively.

B1: AMX237.A2: DNA SELEX 2 aptamer clone (nucleic acid)
chain: CTACCTACGATCTGACTAGCTCCAGTGTTTCATCCAATAACCGTGCGGTGCCTCCGTGAGCTTACTCTCATGTAGTTCC
modifications: DNA, backbone and methylation of C not given here
notes: DNA SELEX 2 aptamer clone
Regarding B1, the figures for the IC50 in data set [1] (setting [5]), in data set [2] (setting [6]) and in data set [2] (setting [7]) were 7 nM, 3500 pM and 815 to 7300 pM, respectively.

B2: AMX237.A11: DNA SELEX 2 aptamer clone (nucleic acid)
chain: CTACCTACGATCTGACTAGCTCCAGTGTTTTATCCAATAACCGTGCGGTGCCTCCGTGAGCTTACTCTCATGTAGTTCC
modifications: DNA, backbone and methylation of C not given here
notes: DNA SELEX 2 aptamer clone
As for B2, the results for the half-inhibitory concentration (IC50) in data set [1] (setting [5]), in data set [2] (setting [6]) and in data set [2] (setting [7]) were 4.7 nM, 2200 pM and 466 to 5600 pM, respectively.

B3: AMX238.G5: DNA SELEX 2 aptamer clone (nucleic acid)
DNA: CTACCTACGATCTGACTAGCTCCAGTGTTTTATTCAATAACCGTGCGGTGCCTCCGTGAGCTTACTCTCATGTAGTTCC
modifications: DNA, backbone and methylation of C not given here
notes: DNA SELEX 2 aptamer clone
In the case of B3, the IC50 in data set [1] (setting [5]) is 5.5 nM; in data set [2] (setting [6]), 1100 pM; in data set [2] (setting [7]) it was 273 to 2600 pM.

B4: AMX237.B11: DNA SELEX 2 aptamer clone (nucleic acid)
DNA: CTACCTACGATCTGACTAGCTCCAGTGTTTTATCTAATAACCGTGCGGTGCCTCCGTGAGCTTACTCTCATGTAGTTCC
modifications: DNA, backbone and methylation of C not given here
notes: DNA SELEX 2 aptamer clone
As to B4, the IC50 in data set [1] (setting [5]) was 5.7 nM; in data set [2] (setting [6]), 2500 pM; in data set [2] (setting [7]) it was 151 to 4800 pM.

B5: AMX238.D12: DNA SELEX 2 aptamer clone (nucleic acid)
DNA: CTACCTACGATCTGACTAGCTCCAGTGTTTCATTCAATAACCGTGCGGTGCCTCCGTGAGCTTACTCTCATGTAGTTCC
modifications: DNA, backbone and methylation of C not given here
notes: DNA SELEX 2 aptamer clone
Take B5: the results for the IC50 in data set [1] (setting [5]), in data set [2] (setting [6]) and in data set [2] (setting [7]) were 7.2 nM, 2000 pM and 684 to 3400 pM, respectively.

B6: AMX205.H10: rRdY aptamer clone (nucleic acid)
chain: rGrGrArGdCrGdCrAdCdTdCrArGdCdCrAdCdTrGdTdTrGdCdCrGrAdCrGrGdTrGrAdTrGdTrAdTdTrArAdCrGdCrGrGrGdCrArAdCrGdTdTrGrGdTrGdTdTdTdCrGrAdCdCdTdCdTdCdTrGdCdTrArGdC
As for B6, the “Inhibition of rabbit VWF A1 domain binding in FACS assay, IC50 range” value in data set [1] (setting [8]) was “no activity”. Further, in data set [2] (setting [9]), the “Inhibition of full length hVWF binding in FACS assay, IC50 range” value is listed as “no activity”.

B7: AMX205.F7: rRdY aptamer clone (nucleic acid)
chain: rGrGrArGdCrGdCrAdCdTdCrArGdCdCrAdCrAdCrGrAdCrAdTdTrGrGdCrGrGrGdTdTrGdTrArAdTdTrAdCdCrAdCrGdCrAdTrGrGdCdTrGdTdTdTrGdTdTdTdCrGrAdCdCdTdCdTdCdTrGdCdTrArGdC
As to B7, the IC50 is 4.7 nM in data set [1] (setting [10]), 818 pM in data set [2] (setting [6]) and 321 to 1600 pM in data set [2] (setting [7]).

B8: AMX206.D8: rRdY aptamer clone (nucleic acid)
chain: rGrGrArGdCrGdCrAdCdTdCrArGdCdCrAdCrGrAdCrGrGdTrGrAdTrGrGrAdTdTrArGdCrGdCrGrGdTrGrGrAdTdCdTdTrArAdCrGdTrGdCrGrArGdTdTdTdCrGrAdCdCdTdCdTdCdTrGdCdTrArGdC
In the case of B8, in data set [1] (setting [8]), the “Inhibition of rabbit VWF A1 domain binding in FACS assay, IC50 range” value was “no activity”. In data set [2] (setting [9]), the “Inhibition of full length hVWF binding in FACS assay, IC50 range” value was “no activity”.

B9: AMX237.G6: DNA SELEX 2 aptamer clone (nucleic acid)
DNA: CTACCTACGATCTGACTAGCGTGCAGTGCCTATTCCAGGCCGTGCGGTGCCTCCGTCACGCTTACTCTCATGTAGTTCC
modifications: DNA, backbone and methylation of C not given here
notes: DNA SELEX 2 aptamer clone
Turning to B9, the IC50 in data set [2] (setting [6]) stood at 1900 pM.

B10: AMX203.G9: rRdY aptamer clone (nucleic acid)
chain: rGrGrArGdCrGdCrAdCdTdCrArGdCdCrAdCrGrGrGrGdTrGrGrGdTrArGrAdCrGrGdCrGrGrGdTrAdTrGdTrGrGdCdTrGrGdTrGdTdCrGrArArGrGrGdTdTdTdCrGrAdCdCdTdCdTdCdTrGdCdTrArGdC
Consider B10, for which the IC50 in data set [1] (setting [10]) was 0.592 nM; in data set [1] (4 nM rabbit A1 vWF, lyophilized platelets, botrocetin, units in the cell: lower bound pM, upper bound nM, read-out: Inhibition of rabbit VWF A1 domain binding in FACS assay, IC50 range) it was 0.152 to 1.6 nM; in data set [2] (setting [6]) it was 4700 pM.

B11: AMX201.C8: rRfY aptamer clone (nucleic acid)
chain: rGrGrArGfCrGfCrAfCfUfCrArGfCfCrAfCfCfCfUfCrGfCrArArGfCrAfUfUfUfUrArArGrArAfUrGrAfCfUfUrGfUrGfCfCrGfCfUrGrGfCfUrGfUfUfUfUfCrGrAfCfCfUfCfUfCfUrGfCfUrArGfC
For B11, the values for the IC50 in data set [1] (setting [10]), in data set [2] (setting [6]) and in data set [2] (setting [7]) were 0.682 nM, 528 pM and 24 to 1800 pM, respectively.
